Experimental data: patent publication US20240189352A1 (MAX DELBR CK CENTRUM F R MOLEKULARE MEDIZIN IN DER …, published 2024)

Tests used:
[1] = target: wild-type RAC1/2 peptide presented by HLA-A2 (peptide-loaded T2 cells) (human); assay: cell-based or functional assay
[2] = target: HLA-A2-restricted GNAZ peptide … presented by HLA-A2 (human); assay: cell-based or functional assay

| IFNγ production by TCR-transduced T cells (relative to unmodified RAC2^P29L) [1] | IFNγ production of T001 TCR-transduced T cells upon coculture with peptide-loaded T2 cells (relative to PMA and ionomycin maximum) [2] | Binder |
| --- | --- | --- |
| 35% | – | RAC2-T002 TCR (TCR, V domains shown) V domain 1: AQSVTQLGSHVSVSEGALVLLRCNYSSSVPPYLFWYVQYPNQGLQLLLKYTTGATLVKGINGFEAEFKKSETSFHLTKPSAHMSDAAEYFCAVGANNLFFGTGTRLTVIP V domain 2: EPEVTQTPSHQVTQMGQEVILRCVPISNHLYFYWYRQILGQKVEFLVSFYNNEISEKSEIFDDQFSVERPDGSNFTLKIRSTKLEDSAMYFCASSEWRGSSYNEQFFGPGTRLTVL |
| – | ~30% | RAC2-T001 TCR (TCR, V domains shown) V domain 1: GENVEQHPSTLSVQEGDSAVIKCTYSDSASNYFPWYKQELGKGPQLIIDIRSNVGEKKDQRIAVTLNKTAKHFSLHITETQPEDSAVYFCAASMGNAGNMLTFGGGTRLMVKP V domain 2: EPEVTQTPSHQVTQMGQEVILRCVPISNHLYFYWYRQILGQKVEFLVSFYNNEISEKSEIFDDQFSVERPDGSNFTLKIRSTKLEDSAMYFCASSETSGASYEQYFGPGTRLTVT |
